Data reported in article PMC7755396 (eLife, 2020).

What was measured:
Details in all cases: both partners purified
[1] = molecular target: Puumala virus (PUUV) Gc ectodomain, residues 659–1105 (Puumala orthohantavirus, GPC of GenBank …, UniProt Q9WJ31); experiment: crystal structure
[2] = molecular target: T1, Puumala virus Gc as displayed on virus-like particles (Puumala orthohantavirus); experiment: cryo-EM structure
T1 chain: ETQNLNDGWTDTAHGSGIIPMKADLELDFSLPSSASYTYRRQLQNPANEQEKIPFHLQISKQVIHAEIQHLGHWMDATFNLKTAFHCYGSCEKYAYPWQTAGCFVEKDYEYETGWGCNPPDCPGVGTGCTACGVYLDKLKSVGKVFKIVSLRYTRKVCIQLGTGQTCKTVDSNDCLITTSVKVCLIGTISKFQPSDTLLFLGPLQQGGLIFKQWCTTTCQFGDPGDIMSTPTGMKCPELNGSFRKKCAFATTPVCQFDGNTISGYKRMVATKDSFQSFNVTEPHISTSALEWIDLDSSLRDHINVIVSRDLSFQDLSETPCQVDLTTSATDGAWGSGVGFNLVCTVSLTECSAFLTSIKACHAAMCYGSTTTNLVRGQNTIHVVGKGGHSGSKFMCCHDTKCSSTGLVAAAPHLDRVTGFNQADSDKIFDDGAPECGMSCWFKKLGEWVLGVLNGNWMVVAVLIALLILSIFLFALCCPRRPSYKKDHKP

[3] = molecular target: T2, Puumala virus (Gn−Gc)4 glycoprotein spike on virus-like particles (Puumala orthohantavirus, strain …, UniProt P27312); experiment: cryo-EM structure
T2 construct: copies: 4 + 4

Measured: binding result

B1: Fab P-4G2 (antigen-binding fragment of mAb P-4G2) (Fab, V domains shown)
VH: QVQMKESGGGLVQPGKSLKLSCAASGFTFSDFWMSWVRQPSGKGLEWVARINTNGDTTHYTDDMKGRFTISRDNAKTTLYLEMSPLKSEDTAMYYCTRDRLGPFDYWGQGTTVTVSS
VL: DIVMTQSPAFPPVSLGDTVTITCQASQSVYKNLAWYQQKPGKSPRLLIFGMSSLADGVPSRFSASGSDKQYSLKIRGLQPEDAAIYYCQQHYIAPYTFGAGTRLEIK
notes: also called Fab 4G2
binds: [1] | [2] | [3]
